We go through six molecules from publication PMC6383945, “Elk1 affects katanin and spastin proteins via differential transcriptional and post-transcriptional regulations”.

To fix the notation:
T1: Elk1-db (ETS DNA-binding domain) (Homo sapiens, UniProt P19419 1-96)
T1 sequence: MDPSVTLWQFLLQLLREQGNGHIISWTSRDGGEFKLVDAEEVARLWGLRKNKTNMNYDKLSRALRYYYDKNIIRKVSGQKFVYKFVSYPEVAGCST

B1: KATNA1 UTR1_WT (+113/+122) (dsDNA)
DNA 1: CGAGGTCGTCCCCGGCACCGGAAGTGACCCTGGCGGGTTTGT
DNA 2: ACAAACCCGCCAGGGTCACTTCCGGTGCCGGGGACGACCTCG
B2: KATNA1 Promoter_Mut (dsDNA)
DNA 1: AGGGTGGAGATTGAGACCAAGAAGGACCCTGTGCAGTACATAT
DNA 2: ATATGTACTGCACAGGGTCCTTCTTGGTCTCAATCTCCACCCT
B3: KATNA1 UTR2_WT (+253/+262) (dsDNA)
DNA 1: GACTGGGTCAGGCCCTCCTTCCTCGCTGCCGGGATCTCCACTC
DNA 2: GAGTGGAGATCCCGGCAGCGAGGAAGGAGGGCCTGACCCAGTC
B4: KATNA1 UTR2_Mut (dsDNA)
DNA 1: GACTGGGTCAGGCCCTCTCCTTCTATTGCCGGGATCTCCACTC
DNA 2: GAGTGGAGATCCCGGCAATAGAAGGAGAGGGCCTGACCCAGTC
B5: KATNA1 UTR1_Mut (dsDNA)
DNA 1: CGAGGTCGTCCCCGGTGTTAAGGATGACCCTGGCGGGTTTGT
DNA 2: ACAAACCCGCCAGGGTCATCCTTAACACCGGGGACGACCTCG
B6: KATNA1 Promoter_WT (-428/-419) (dsDNA)
DNA 1: AGGGTGGAGATTGAGACTGGAGGAAGCCCTGTGCAGTACATAT
DNA 2: ATATGTACTGCACAGGGCTTCCTCCAGTCTCAATCTCCACCCT

The series deals with T1, Elk1-db (ETS DNA-binding domain). Put plainly: EMSA; 10 mM Tris pH 7.5, 50 mM KCl, 1 mM DTT, 1 ug poly(dI-dC), 5% glycerol, 1 mM EDTA, 0.3% BSA, protease inhibitors; 20 fmol probe, 300 ng Elk1-db; 20 min room temperature; 6% native PAGE in 0.5X TBE at 4 C. To be noted: protein: recombinant; tags: 6xHis; label: 3' biotin on both strands; blunt before labelling.
As for B1, the binding result was “binds”.
For B2 the value was “no binding”.
Take B3: the binding result is “no binding”.
As to B4, the binding result is on record as “no binding”.
For the molecule B5, the binding result is “no binding”.
For B6 the value was “no binding”.
